According to the domain aggregation screens of Martell et al. (2025):

Assay: soluble fraction after stress (log2 fold change); higher = more stays soluble; pooled small domains, quantitative proteomics
Settings: stress: pH 4
In short: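 Custom libraries of small protein domains were pooled and measured with high-throughput quantitative proteomics after pH 4 stress. The read-out is the fold change in the amount of each domain that stays soluble after the acid stress, taken as a measure of aggregation propensity. Fold changes are on a log2 scale, and higher values mean more of the domain stayed soluble.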

Sequence | soluble fraction (log2)
HMKLPNSFGSIQKLSGNRRKPYRVVKTIGWDENGKQIRKTLGYYETRAKALQELALFNEKPYD | 0.22
HMTNTDALINRAAKVVEEINPDKNTGRVSIDGDLWRAKSSSGELIEQNKQVIVISIESTIVTVKI | -0.317
HMQNELAEARSQLAERKNIDQAKLILMKKRNISEPEAYKLLRSHAMQTNRRVAEVAESIITAESLLG | 0.0831
HMTTQVNTVKIQLANGYEMTVLTSKTNVKEILEDNNIILENNEKVTPNIDEEISSNKTIKITDKSN | -0.0659
HMFLPGETFDVKIVKIGEGENQGVGYLDDGTMIVIENGRDHLNELARVIVTRVLQNSAGQMIFSDYEE | -1.76
HMAVSVPDVMGLTYEEAYNKITAEGLLVNRLESYTGLVEKGRVISQLPVGGEPAAKGSTVNVNVSL | -0.139
HMQLDLNENEKIIFEILQNNKTMQLSNLKTQTELSNKGWDKAIKSLTKQGLAKVSKIDNELIVEFL | -0.723
HMGDTLEIVVIYSNKQKAEEAVNNLKGKFEDLGYNFAIITVDTSKITQLAMESSIQYIEFPKSFYFSD | -1.29
HMGTLPSLAPSGEKTVRLPNLAGWSLRETMEILQKGGLQLLPIGSGISFKQSPPPGTTLNEGDAVTVWF | 0.103
HMFHDALVSFAERRVIFMKELVNRLNEARKAYYEGESIMSDKEYDNLYDKLVKMELTTGVVLPNSPTEEVG | -0.754
HMDDFGERLRKLRVAQDLTQQQLGEKLGVVPSTIGKYEKVKDSYPSIEVLIKLSDFFSVSTDYLLKG | -0.905
HMSNFGALLRMRRLEAGLSYRGLAEQSGLARATLVNLEQGLTKPSPLTMRRLASVKALRLTEL | 0.00389
HMQAGILTDTAAKNARIKKIDTERLEAELDQKRIVIVTGFQGVDRNQNITTLGRGGSDTSAVALAAAVSIT | 0.0198
HMDDVIEVEGKVVEVLPNTKFIVELANSHKITAHISGKLRMNYIRIMKGDNVTVEMSPYDLTKGRIIWRS | -0.167
HMDAIAYLGSRLKEIRLKSGLSLREIARQLDVSPSFISQIENGKSQPSVATLYAFAKLLNVPVDVLFQPS | -0.455
HMPGVTTQLHRLNGTEETYIIKRGDGVLEIDGEKSELQLGDAIIIPAGASQKISNIGDEDLE | -0.229
HMKSGLLNLSTRKQEKIKQALLSEFSNVSLLEAKVANIVTLAEISRGSFYTYFEDIYDAYQWLASI | 0.22
HMEQSGDELKTWVDQAIAAYPEKVKEYQQGKKGLLALFIGEVMKRSKGTADPKKVNQLVTEALS | -0.211
HMEQPLSLKLANNAFSRFWGNANPAEKDTQPNNSDIAKWVIEQSGGKITQTMADKIAQIIRPEWAA | 0.25
HMKKYLNIYNIIVNKIESKEYQSNDKLPSEKELMDQYNVSRDTVRKSLNMLEQNGYIQKTKGKGSFVLDIN | 0.409
HMNVVINNELVSLMVEAMKDGVSSKSIQEEFEGYKISGKTITKKVLTAHVNKALEVFADMQE | -0.477
HMTMLLEYNVSRSSKWMNKTIMDAEIPDDILIVMIKRNGQVIVPKGSTEILENDILVLSGNNLNEVALG | -1.46
HMAFRLPNGYGTIRRLTGNRRKPYVALVNPTQVFDDEKGTSHYKYDLLGTFAEKIDAYNAVMQYHKSPGGL | -0.223
HMRSKTSYAVWTPIQIDAGSQMQALQSKGFNTVLMEGGISVGIRSDKAQAQALLNRLQGAGFTGQLREVN | 0.259
HMKFTSEKDISLLELVKAKMGFVSNTKARNVIKIGQIMVSGKVIKIPSTLIKPGTEVELARRV | 0.32
HMGTDGLKDIVLEILKEHPNQLAELIDGKQKVLGFLVGQVMKKTNGAANPKEVNEIIQGEIKK | -0.433

Sequence | soluble fraction (log2)
HMDYYKILGLSTSATLDQIKKAFRQLAIEFHPDKNPNNPTAEDKFQRISEAYAVLSNPEKRAEYDRSY | -0.17
HMKGSPFSQLPKEKKKRILQAAIEVFAQNDYKHASTDEIASRAGISKGLLFYYFHDKKTLYFYLGEYLKR | 0.173
HMDIVLPFSFAKRHGVVLSERQGETELLYLKGLPVRVLAEARRVLRQEFTVRQVEQAVFDKALSESYQN | -0.591
HMIKRNPLDEIEGVGPGRKKALLHAFGSAKGVSRASVVDLVKVEGVSQALAERIHDFFHPATR | 0.198
HMWVETITTKAGITKYKFQERYTDTYSGKTKRVSVTYTSNSRQAYKLAQAELQKKIDLATNTD | 0.112
HMKYNGDRPVFNDDVAWAKWMLENPAKITSHDKENLSSMLKKPEVVMLFEAEDLSVPDLRTLAKE | -0.349
HMDNEIMYPIQINGKVRAELFVSTERAMDKQYVLEQAKANEKIQGYLEGNRLVKEIFVPKRIVNLVIAP | 0.184
HMVSLPSPLAGKVVSLTVQAGQEVKEGDEIMVLEAMKMNTQVHAPSSGRILALRVQPGDQVEEGQTLVTMG | 0.0584
HMKTEIKSPLPGIVLKIFVRTGEYVDKNQRLFSLEAMKMENEIKAERAGVIAGIRISEGQSVLQDEVIMEM | -0.288
HMLISYRVDALANEAGLSVDTIRYYQKLGILDPPKRTGRHSEYSPDHLERLIEIRRLADAGLTLSQISEI | -2.33
HMKVIAEESYRILVDAIEKLPPQMKSIMQLALEGKSNPEIAETLNISGETVHSQKKIAYRKLRVYLKD | -0.144
HMPELTERELEVLLLTARGLPSSEAARLLFITRRTVAAHLTSIYGKLGARNKTEAVLAALKRGIIMLDQIG | -1.46
HMAPRASDALTERELDVLRVVADGASVAEAAEMLVVSRETVKKHLGNIYAKLGVHSKMQAVALLREEGV | -1.27
HMSTKLLEVNIFDDSKWVNKTIMDSDIPEDILIVMIKRGDEVIVPKGSTIINKGDILVLSANNFDNLLN | -1.97
HMRITEQRRTLAKLFADTPGYLSPKDVYDYMGRFYPGLSFDTVYRNLRLLDELGVLEQVVFEDGVKFK | -0.677
HMAQSTALVNLAQAEINKRGLTQTEVQARLSEEGINVNSISPAEYPKYQKQILSILDQMQKEKQLSKEV | 0.359
HMNMGKRFKELRKERKFTQQQLADRIGLAPSAISSYESGARYPSYDVLIKYSKIFHVTTDYLLG | 0.148
HMEPSERYKALQSLLPDYAKRLKKKGVTRHQLFLEYRLTHPDGYARSRFGTYFQAYLALSHP | ≥ 0.43
HMEQETVTVPDLVGKDVVAAQAELHEMGLSGKPDGTGTTVVSQFPVAGARVLKHTNVILYTED | 0.0839
HMIDMQIDTARFGTLGVDDDKIITFPKGLPGFEDERRFFLMDHSGSSKIKWLHSADNPGLALV | -0.541
HMSSLDTLTARETQILAEMAQGKNNAAIAAAVSVSERAVEKHTNSIFAKLGLSEEKDVNRRVMAVLLFLGR | -1.5
HMGNKKLVLKLSKKLIKIPSFLNIYSVKLTKNGRELEINLDKSQNEAIDIINLIKKNNISFLEFDIKKR | 0.015
HMNKPTFNIFNNRLTFPFKGDITIYSLDGKRVFSAYNESSVNLSFLNRGSYISEFNNSRSVLIL | -0.948
HMAMTRTEYLNQLKHYLKRLPHTDYEEAMDYFKEYFEEAGPENEAQVIQDLGNPKEAAYEILSQLL | -0.615
HMDSAMMDLVMRVQLALFTKGYDVGIIDGKIGPKTRAQIKRYQSDNRLSSTGTLTTSLLTSLGIQ | 0.00457
HMEKKDTYTVKNGDSLWGIARTELGDGGRFREIYTLNADTIEAEAKKRGRSSSSEGHWIYPGSVLRLP | -0.325

Sequence | soluble fraction (log2)
HMIDIDNLEKAAILLLSMGTEAAAKVMQKLSRDEVQRLISKMASLSGVSSIEAKWTLQQFFNQYREQSG | -0.832
HMIDELNVGDIRFYLNRYGKEIQIEIIRIGDDGSVYARTMADNALFRVPEARLKNIGEKVPAEEVQRG | -0.348
HMKQTMIVVMEKDAPQSQIDDMVKRIEGLGLKAHTIVGTQRTVVAAIGEKREDTRESLAGSPGVAEVVPIL | -0.137
HMEFVEERRNRMLDYIGENKRADVPELARHFDVTEVTIRRDLLILEQDGKLIRTHGGAMINR | -0.278
HMTVDAVALGRRVRHLRKQAGLTLDQLAERTGVSGSHLSLVENARREPRLSLVQRIAEVLGVPVEDL | -0.602
HMLALVREQIERNVSNPTDEDIRKIRHDVMEVITRAGADAATVDIAIEIDSQKNILRAIATGATEL | -1
HMSNTVEDLIDDIGTVTKDSKDKIDAARKAYDGLTEDQKKLVPDSVLKTLTDAEAAYAKLTK | 0.191
HMDVPNLVGEEIKDVRRTLRHFQLEVIGEGSKIVSQVPKHGQRLPENTTIRVYLN | -0.0434
HMQSVPELDQQFKIAIENNDFIKLAQLKEQGYHPSKEVMQSLSNTTPNNTIIAVQKIFGLKA | -0.185
HMLTEERLQIITDTVNSRSSVTIAELSRILDVSPSTVKRDLNILAEAGKITKVRGGAIALGE | 0.164
HMAFIEADIGKRIKSLRNKKRITLESLAAETGFTKGYLSKVETSEKAPPVSTLGSIARALGVSISTLLGE | 0.144
HMLRGKNALMSQLDQIQGIGPKRKRALFNHFLTLDAIKQADVETLRQAPGMNLPAAEQVYRHFHM | 0.144
HMSGITDIITDGKATSRPVVVTDGGHIRVLSPYTSFAIYTLGGMSLPTESRLEPGIYIVVVDSNAVKVAV | -0.408
HMNKRKQRINDLMDLIREQPALSIKNLAEMLNVSEMTIRRDMAYLKSNNLLNRAHGMNFLNS | 0.132
HMNSNLSLTSYEEKIFFLLEKEKNLDELILESSFKAGEILSILMDLEIKHAIVSIPGGKYRRK | -1.32
HMNRITEFVVPEGTKKIRADKLLAESFPDHSRSDFHRAFDASLVRLEGQPISKNRKISQGDVLVFEMPEI | -0.468
HMVRSLESESVYDRQRAYEIAYQLRTEERPYSFIATQLNKAGLRPQKAARYEWYSVQELLRSA | ≥ 0.43
HMAEANTEADFVAIGVRAELLPILQKLGVHTIEQLKGIKATKLFNDIPGMRKKLKLDAVQNPTLQEIEGWL | -0.393
HMNFIPGEKINLKIVQEGKEKNQGVGYLSDGTMVIVENGSQKLGQDVEVVVIKNIQSSAGKIVFGDISK | 0.227
HMRALPFSFANRHGVLIREISDGVAHAVYRIGSSPLGLAEARRFVGMPLMLTPVAREAFDSLLQQTYEQG | -0.612
HMGFLTKTQRLEILLHLKDEPYYNVEKLKELIKNRYGIVYQSSQSYYDLLKEAGLSWHQTQA | 0.00834
HMNLGNLAYESKVTKQVLNMIRPLHPEYSSDDITRAVKEILSEEGSRQRRVDEIARGALDVLMGNPR | ≥ 0.43
HMENNIPANIKALIISYVNQNYPGAVIHSIERNSNGTYDVEIYYNNREYDLLFDAQGNFISGNVDDQ | -0.366
HMQNVFARKNLTSVSVDKLGEEEILLFKQSFESKNLTSSEALRDLSKKGMSEAELRKLKVRLTQL | -0.177
